In US20220135654A1 (GOVERNMENT OF THE UNITED STATES OF AMERICA AS REPRESENTED …, published 2022):

B1: sdAb clone E10 (VHH)
VHH: DVQLQASGGGLVQAGGSLRLSCAASARTFYTMGWFRQVLGKDREFVGAIRWGVYATTRYADSVKGRFSISRDDATNTVALQMNSLKPEDTAVYYCAARAGPLGFELSATSSAEYDYWGQGTQVTVSS
B2: sdAb clone A9 (VHH)
VHH: EVQLQASGGGLVQAGESLRLSCVVSGGAFRIMDMGWFRQVPGKQREVVGVISSGGYTNYADSVKGRFTISRDNAKRTVYLHMNSLKPEDTAVYYCNIIPKSDQGAVNTWGKGTLVSVSS
B3: sdAb clone B6 (VHH)
VHH: EVQLQASGGGLVQAGDSLRLSCVAVSGRTISTFAMGWFRQAPGKEREFVATINWSGSSARYADPVEGRFTISRDDAKNTVYLEMSSLKPGDSAVYYCASGRYLGGITSYSQGDFAPWGQGTQVTVSS
notes: also called Bt-B6

Key:
[1] = biological target: SARS-CoV-2 nucleocapsid protein (recombinant) (SARS-CoV-2, UniProt P0DTC9 1-419); test: SPR (ProteOn XPR36), N immobilised on chip, sdAb in flow, 25 C
[2] = biological target: SARS-CoV-2 receptor-binding domain (SARS-CoV-2, UniProt P0DTC2 319-541); test: direct-binding MagPlex assay, biotinylated sdAb on RBD-coated microspheres

Binder | Kd [1] | koff [1] | kon [1] | binding result [2]
B1 | 14 nM | 0.00095 s⁻¹ | 69000 M⁻¹ s⁻¹ | no binding
B2 | – | – | – | no binding
B3 | 1.6 nM | 0.0003 s⁻¹ | 190000 M⁻¹ s⁻¹ | no binding
